B1: LGI1 (wild type, pull-down with ADAM22/23 ECD-FLAG) [human] / ADAM23 ECD-FLAG [human] (parent complex)
chain 1: KKPAKPKCPAVCTCTKDNALCENARSIPRTVPPDVISLSFVRSGFTEISEGSFLFTPSLQLLLFTSNSFDVISDDAFIGLPHLEYLFIENNNIKSISRHTFRGLKSLIHLSLANNNLQTLPKDIFKGLDSLTNVDLRGNSFNCDCKLKWLVEWLGHTNATVEDIYCEGPPEYKKRKINSLSSKDFDCIITEFAKSQDLPYQSLSIDTFSYLNDEYVVIAQPFTGKCIFLEWDHVEKTFRNYDNITGTSTVVCKPIVIETQLYVIVAQLFGGSHIYKRDSFANKFIKIQDIEILKIRKPNDIETFKIENNWYFVVADSSKAGFTTIYKWNGNGFYSHQSLHAWYRDTDVEYLEIVRTPQTLRTPHLILSSSSQRPVIYQWNKATQLFTNQTDIPNMEDVYAVKHFSVKGDVYICLTRFIGDSKVMKWGGSSFQDIQRMPSRGSMVFQPLQINNYQYAILGSDYSFTQVYNWDAEKAKFVKFQELNVQAPRSFTHVSINKRNFLFASSFKGNTQIYKHVIVDLSA
chain 2: AVNPSRGIFEEMKYLELMIVNDHKTYKKHRSSHAHTNNFAKSVVNLVDSIYKEQLNTRVVLVAVETWTEKDQIDITTNPVQMLHEFSKYRQRIKQHADAVHLISRVTFHYKRSSLSYFGGVCSRTRGVGVNEYGLPMAVAQVLSQSLAQNLGIQWEPSSRKPKCDCTESWGGCIMEETGVSHSRKFSKCSILEYRDFLQRGGGACLFNRPTKLFEPTECGNGYVEAGEECDCGFHVECYGLCCKKCSLSNGAHCSDGPCCNNTSCLFQPRGYECRDAVNECDITEYCTGDSGQCPPNLHKQDGYACNQNQGRCYNGECKTRDNQCQYIWGTKAAGSDKFCYEKLNTEGTEKGNCGKDGDRWIQCSKHDVFCGFLLCTNLTRAPRIGQLQGEIIPTSFYHQGRVIDCSGAHVVLDDDTDVGYVEDGTPCGPSMMCLDRKCLQIQALNMSSCPLDSKGKVCSGHGVCSNEATCICDFTWAGTDCSIRDPVRNLHPPKDEGPKGPSA

Variants of: B1
Experiment: pull-down; anti-FLAG antibody agarose; proteins secreted from HEK293T cells; n = 4 independent experiments; read off a plot

Variant | percent of parent
chain 1 K319A | ~7 % of WT
chain 1 F222A | ~16 % of WT
chain 1 M443A | ~10 % of WT

Other lines, results leading:

percent of parent | Variant
~6 % of WT | chain 1 R344A
~4 % of WT | chain 1 Y399A
~20 % of WT | chain 1 V250A
~9 % of WT | chain 1 R296A, chain 1 K297A

From paper PMC5906670, “Structural basis of epilepsy-related ligand–receptor complex LGI1–ADAM22” (Nature Communications, 2018)
